The values that follow come from patent US20230404098A1.

The test concerns the target Bovine kappa casein purified from cow's milk (Sigma Aldrich) (bovine (cow)) (UniProt P02668). The test is described as follows: cell-based or functional assay.
UniProt P02668, sequence (P02668 22-190): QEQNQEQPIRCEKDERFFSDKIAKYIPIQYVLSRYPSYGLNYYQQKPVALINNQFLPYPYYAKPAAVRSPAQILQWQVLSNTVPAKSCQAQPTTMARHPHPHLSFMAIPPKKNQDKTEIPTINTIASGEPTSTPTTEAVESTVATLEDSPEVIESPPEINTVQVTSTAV

“Recombinantly-produced N-terminally 6xhistidine-tagged bovine (cow) alpha-s1-casein (lacking PTMs)” displayed an Average A450 (turbidity of the micellar colloid) of 0.13 A450.
